Measurements taken from PMC12210968.

Target: Human plasminogen (PLG) protein (human) (UniProt P00747)
Assay: SPR; BIAcore system; PLG and EV-A71 6356 viral particles; the methods tell one set-up (PLG coated, virus diluted) for EnSpire or BIAcore

Q: For “Enterovirus A71 (EV-A71) viral particles, strain 6356 (human strain, C2 genotype) (complex)”, which Kd is on record?
A: 1.96 nM

Q: What about the koff of the same substance?
A: 5.63e-05 s⁻¹

Q: And the kon?
A: 28800 M⁻¹ s⁻¹
